According to article PMC1885668:
Residue numbers refer to the chain shown, from its start.

Experiments:
[1] = molecular target: T1, TREX2BD (human, UniProt Q9BQ50 1-236, R163A;R165A;R167A); experiment: SPR
T1 sequence: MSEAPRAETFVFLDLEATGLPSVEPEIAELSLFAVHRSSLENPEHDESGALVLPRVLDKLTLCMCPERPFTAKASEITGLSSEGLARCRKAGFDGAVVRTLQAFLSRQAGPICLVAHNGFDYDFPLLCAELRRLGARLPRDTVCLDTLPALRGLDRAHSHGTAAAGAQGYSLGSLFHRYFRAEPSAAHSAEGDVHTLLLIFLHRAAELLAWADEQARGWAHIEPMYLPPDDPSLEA

[2] = molecular target: T2, TREX2DD (human, UniProt Q9BQ50 1-236, E29A;K59A;D94A;R107A;E191A); experiment: SPR
T2 sequence: T1 sequence with E29A, K59A, D94A, R107A, A163R, A165R, A167R, E191A

B1: Biotin-mTX1-322 (24-mer) (ssDNA)
DNA: GTATGAGCTGCAGTTCCTCAGCAT
binding result [1]: no binding | binding result [2]: no binding
